Here are results for three molecules from US20200023070A1, “CONJUGATES COMPRISING AN GLP-1/GLUCAGON/GIP TRIPLE RECEPTOR AGONIST, A LINKER AND HYALURONIC ACID” (SANOFI, priority 2018, published 2020).

Starred links: 1 amine or outer side, 2 acyl side, 3 side chain; linkers in the order of their positions; H or OH if unused. Non-standard residues stand in square brackets, D forms with d. Groups on a side chain read outwards from the residue. No end group written: not given here. *: point of attachment. γGlu = O=C(O)[C@H](CCC(=O)[*:2])N[*:1]; Palmitoyl = CCCCCCCCCCCCCCCC(=O)*; Aib = CC(C)(N)C(=O)O

Data set [1] can be described thus: Pharmacokinetics in female SD rats. The class given is in vivo, Sprague-Dawley rats. As for the experimental part: 5 female Sprague-Dawley rats were used in this study. Animals had access to food and water ad libitum throughout the entire study period. The animals were dosed with 1.01 mg/kg (peptide content) of a suspension of the conjugate of Seq ID. No.7. Plasma samples were taken at 4, 24, 48, 72, 144, 192, 240 and 336 h. Samples were analysed for the peptide. All quantitative results were determined by LC-MS/MS. For calculation of mean concentrations, values below the lower limit of quantification (LLOQ=2.5 ng/mL in plasma) were set to zero. The pharmacokinetic parameters were calculated by the program WinNonlin 6.4 using a non-compartmental model and linear trapezoidal interpolation calculation.

Data set [2] in a line: Pharmacokinetics in female Göttingen minipigs. In kind it is in vivo. To be noted: for half-life in plasma: after subcutaneous administration. As for the experimental part:
6 female Göttingen minipigs of average 30000 g weight were used in this study.
Animals had access to food and water ad libitum throughout the entire study period. The animals were dosed with 0.23 mg/kg of a 17.6% suspension of HA-Aib-linker-Seq ID. No.7. Plasma samples were taken at 0, 1, 4, 8, 24, 48, 72, 96, 144, 192, 264, 312, 360, 432, 480 and 528 h. Samples were analysed for the peptide. All quantitative results were determined by LC-MS/MS. For calculation of mean concentrations, values below the lower limit of quantification (LLOQ=0.5 ng/mL in plasma) were set to zero. The pharmacokinetic parameters were calculated by the program WinNonlin 6.4 using a non-compartmental model and linear trapezoidal interpolation calculation.

The nature of data set [3]: Injectability study (load on pre-filled syringe). The class given is physicochemical. The settings on record: 20 mg/mL suspension, 13.5% peptide load, 1 mL BD Neopak PFS, needle 27G×½″ TW, 3.2 mm/s. As for the experimental part: A suspension of HA-peptide conjugate with Seq. ID No. 7 (20 mg/mL in 20 mM acetate buffer, 7.6 mg/mL NaCl, 4 mg/mL soluble (non crosslinked) hyaluronic acid 700 kD, pH 4.8) was manually filled into 1 mL long BD Neopak glass pre-filled syringes (PFS), 600 μL each, and afterwards closed via vacuum stoppering. The filled PFS were loaded into the syringe holder of the equipment and the injection speed was adjusted to […] which equals 3.2 mm/s for the BD Neopak PFS.

Data set [4] deals with female diet-induced obese (DIO) C57BL/6N mice. The experiment in a line: Body mass after subcutaneous treatment in female diet-induced obese mice. In kind it is in vivo, mouse. The settings on record: for mean body weight reduction by day 23 versus the body weight at day 0: days 1, 8, 15, 22, female DIO mice. As for the experimental part: Female C57BL/6N Cr1 mice were used for this study.
Mice were group housed under vivarium conditions that included a 12 h light/dark cycle, room temperatures—of 23±1° C. and a relative humidity between 30-70%. All animals had free access to water and diet (Ssniff adjusted high fat diet: TD.97366) for 18 weeks prior to pharmacological intervention (dosing phase). After pre-feeding period, mice were stratified for body weight to treatment groups with n=8, so that each group has similar mean body weight. At the study start mice were between 25-26 weeks old.
Mice were treated in the morning on days 1, 8, 15 and 22 between 8:00 and 9:00 AM with a s.c. injection of cross-linked hyaluronic acid (“vehicle”) or 100 and 200 nmol/kg/week conjugate (based on peptide content) of SEQ ID NO: 7 using a 30 G needle.
Body weight and food consumption were measured daily throughout the dosing phase. The study was terminated on day 23.
For statistical analyses a One-Way Analysis of Variance (ANOVA) was performed with SigmaStat 3.5. The power of the performed test was alpha=0.050:0.999 and a comparison versus the high fat diet-Vehicle group was performed with Dunnett's Method.

For data set [5], the target named is human GLP-1 receptor (human, UniProt P43220 24-463). As to the kind of experiment: cell-based or functional assay.
Data set [6] has as its target T1, human GIP receptor (human, UniProt P48546 22-466).
T1 sequence (looked up): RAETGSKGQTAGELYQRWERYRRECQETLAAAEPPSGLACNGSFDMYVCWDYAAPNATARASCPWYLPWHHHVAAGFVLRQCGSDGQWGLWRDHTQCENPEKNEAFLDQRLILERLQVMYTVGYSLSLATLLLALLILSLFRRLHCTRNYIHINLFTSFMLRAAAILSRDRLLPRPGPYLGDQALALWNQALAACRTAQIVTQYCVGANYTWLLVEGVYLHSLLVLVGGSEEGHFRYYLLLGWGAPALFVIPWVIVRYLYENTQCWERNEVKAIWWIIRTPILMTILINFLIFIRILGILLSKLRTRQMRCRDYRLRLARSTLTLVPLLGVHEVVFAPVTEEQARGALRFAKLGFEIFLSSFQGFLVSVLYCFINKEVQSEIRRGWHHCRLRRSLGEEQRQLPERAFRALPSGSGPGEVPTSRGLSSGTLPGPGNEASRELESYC
As to the kind of experiment: cell-based or functional assay.

Data set [7] has as its target human glucagon receptor (human, UniProt P47871 26-477). The experiment in a line: cell-based or functional assay.
Where [8] appears, read: peptide Seq. No. 7 in plasma, single s.c. 1.01 mg/kg (peptide content) conjugate suspension.
The mark [9] stands for this setting: peptide Seq. NO: 7 in plasma, single s.c. 0.23 mg/kg of 17.6% conjugate (0.04 mg/kg peptide).

human glucagon receptor, sequence (P47871 26-477): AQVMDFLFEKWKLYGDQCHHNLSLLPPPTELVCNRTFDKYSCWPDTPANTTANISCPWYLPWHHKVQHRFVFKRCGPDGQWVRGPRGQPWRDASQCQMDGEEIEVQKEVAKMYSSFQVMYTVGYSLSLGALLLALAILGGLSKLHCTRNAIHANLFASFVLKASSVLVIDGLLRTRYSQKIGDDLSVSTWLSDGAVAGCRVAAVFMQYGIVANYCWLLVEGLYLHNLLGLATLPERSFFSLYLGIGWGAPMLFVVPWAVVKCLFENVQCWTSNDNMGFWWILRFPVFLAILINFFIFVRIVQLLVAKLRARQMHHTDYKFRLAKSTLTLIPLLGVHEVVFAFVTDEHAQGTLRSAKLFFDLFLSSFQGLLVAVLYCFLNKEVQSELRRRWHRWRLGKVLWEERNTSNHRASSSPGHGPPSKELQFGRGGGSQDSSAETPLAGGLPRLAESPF

What is called Cmax is the highest concentration seen after dosing. As to “conjugate of SEQ ID NO: 7: Divinylsulfone-crosslinked hyaluronic acid hydrogel carrying peptide Seq. ID No. 7 via Aib-linker (thiol-maleimide conjugation) (H[Aib]HGTFTSDLSKLK([γGlu-γGlu-Palmitoyl])EEQRQ[Aib]EFIEWLKA[dA]GPPS[Aib]KPPPK-NH2; also: conjugated to divinylsulfone-crosslinked hyaluronic acid hydrogel via Aib-linker (thiol-maleimide), site not given here)”, the half-life in plasma entry in data set [1] (after subcutaneous administration, 1.01 mg/kg (peptide content)) was “around 3 days”; in data set [2], “around 139 h”; in data set [2] (same value as in h) it was 139 h. Further, the AUClast in data set [1] (setting [8]) was 1810 ng·h/mL; in data set [2] (setting [9]) it was 897 ng·h/mL. Moreover, the Cmax in data set [1] (setting [8]) is listed as 14.0 ng/mL; in data set [2] (setting [9]), 4.96 ng/mL. In addition, the figures for the tlast in data set [1] (setting [8]) and in data set [2] (setting [9]) were 221 h and 344 h, respectively. In addition, the tmax was 48.0 h in data set [1] (setting [8]) and 100 h in data set [2] (setting [9]). In data set [3], this molecule displayed an average load of 6.5 N. Also, the maximum load in data set [3] was found to be 7.6 N. Moreover, the “mean body weight reduction by day 23 versus the body weight at day 0” value is reported as ~17.7±1.3% in data set [4] (100 nmol/kg/w s.c. (based on peptide content)) and ~19.5±1.4% in data set [4] (200 nmol/kg/w s.c. (based on peptide content)). The “body weight effect of the first administration” value in data set [4] (both doses (100 and 200 nmol/kg/week s.c.), p<0.05 vs high-fat diet vehicle) was “significant body weight-reducing effect that lasted until day 8”.

B1: Peptide of SEQ ID NO: 7 (GLP-1/Glucagon/GIP triple receptor agonist, exendin-4 derivative) (peptide)
peptide: H[Aib]HGTFTSDLSKLK([γGlu-γGlu-Palmitoyl])EEQRQ[Aib]EFIEWLKA[dA]GPPS[Aib]KPPPK-NH2
modifications: N-terminus assumed
SMILES: CCCCCCCCCCCCCCCC(=O)N[C@@H](CCC(=O)N[C@@H](CCC(=O)NCCCC[C@H](NC(=O)[C@H](CC(C)C)NC(=O)[C@H](CCCCN)NC(=O)[C@H](CO)NC(=O)[C@H](CC(C)C)NC(=O)[C@H](CC(=O)O)NC(=O)[C@H](CO)NC(=O)[C@@H](NC(=O)[C@H](Cc1ccccc1)NC(=O)[C@@H](NC(=O)CNC(=O)[C@H](Cc1c[nH]cn1)NC(=O)C(C)(C)NC(=O)[C@@H](N)Cc1c[nH]cn1)[C@@H](C)O)[C@@H](C)O)C(=O)N[C@@H](CCC(=O)O)C(=O)N[C@@H](CCC(=O)O)C(=O)N[C@@H](CCC(N)=O)C(=O)N[C@@H](CCCNC(=N)N)C(=O)N[C@@H](CCC(N)=O)C(=O)NC(C)(C)C(=O)N[C@@H](CCC(=O)O)C(=O)N[C@@H](Cc1ccccc1)C(=O)N[C@H](C(=O)N[C@@H](CCC(=O)O)C(=O)N[C@@H](Cc1c[nH]c2ccccc12)C(=O)N[C@@H](CC(C)C)C(=O)N[C@@H](CCCCN)C(=O)N[C@@H](C)C(=O)N[C@H](C)C(=O)NCC(=O)N1CCC[C@H]1C(=O)N1CCC[C@H]1C(=O)N[C@@H](CO)C(=O)NC(C)(C)C(=O)N[C@@H](CCCCN)C(=O)N1CCC[C@H]1C(=O)N1CCC[C@H]1C(=O)N1CCC[C@H]1C(=O)N[C@@H](CCCCN)C(N)=O)[C@@H](C)CC)C(=O)O)C(=O)O
For the molecule B1, in data set [5], the “EC50 hGLP-1R (cAMP response, HTRF, HEK-293 cells)” value came out at 2.9 pM. Also, in data set [6], the “EC50 hGlP R (cAMP response, HTRF, HEK-293 cells)” value amounted to 1.5 pM. In addition, in data set [7], the “EC50 hGlucagon R (cAMP response, HTRF, HEK-293 cells)” value turned out to be 2.1 pM.

B2: Peptide of SEQ ID NO: 6 (GLP-1/Glucagon/GIP triple receptor agonist, exendin-4 derivative) (peptide)
peptide: H[Aib]HGTFTSDLSKLK([γGlu-γGlu-Palmitoyl])EEQRQKEFIEWLKAGGHPS[Aib]KPPPK-NH2
modifications: N-terminus assumed
SMILES: CCCCCCCCCCCCCCCC(=O)N[C@@H](CCC(=O)N[C@@H](CCC(=O)NCCCC[C@H](NC(=O)[C@H](CC(C)C)NC(=O)[C@H](CCCCN)NC(=O)[C@H](CO)NC(=O)[C@H](CC(C)C)NC(=O)[C@H](CC(=O)O)NC(=O)[C@H](CO)NC(=O)[C@@H](NC(=O)[C@H](Cc1ccccc1)NC(=O)[C@@H](NC(=O)CNC(=O)[C@H](Cc1c[nH]cn1)NC(=O)C(C)(C)NC(=O)[C@@H](N)Cc1c[nH]cn1)[C@@H](C)O)[C@@H](C)O)C(=O)N[C@@H](CCC(=O)O)C(=O)N[C@@H](CCC(=O)O)C(=O)N[C@@H](CCC(N)=O)C(=O)N[C@@H](CCCNC(=N)N)C(=O)N[C@@H](CCC(N)=O)C(=O)N[C@@H](CCCCN)C(=O)N[C@@H](CCC(=O)O)C(=O)N[C@@H](Cc1ccccc1)C(=O)N[C@H](C(=O)N[C@@H](CCC(=O)O)C(=O)N[C@@H](Cc1c[nH]c2ccccc12)C(=O)N[C@@H](CC(C)C)C(=O)N[C@@H](CCCCN)C(=O)N[C@@H](C)C(=O)NCC(=O)NCC(=O)N[C@@H](Cc1c[nH]cn1)C(=O)N1CCC[C@H]1C(=O)N[C@@H](CO)C(=O)NC(C)(C)C(=O)N[C@@H](CCCCN)C(=O)N1CCC[C@H]1C(=O)N1CCC[C@H]1C(=O)N1CCC[C@H]1C(=O)N[C@@H](CCCCN)C(N)=O)[C@@H](C)CC)C(=O)O)C(=O)O
With B2, in data set [5], the “EC50 hGLP-1R (cAMP response, HTRF, HEK-293 cells)” value was 1.4 pM. The “EC50 hGlP R (cAMP response, HTRF, HEK-293 cells)” value in data set [6] came out at 2.1 pM. Besides, the “EC50 hGlucagon R (cAMP response, HTRF, HEK-293 cells)” value in data set [7] amounted to 2.3 pM.
